Here are results for three substances from paper PMC4537477.

Assay [1] has as its target histone H3-H4 heterodimer (human) (UniProt P68431). Briefly: SEC; Superdex 200 10/300 GL; complex obtained at 0.5 mol/L NaCl; eluted at 14.38 mL, apparent molecular weight about 60 kDa; apparent stoichiometry also by Coomassie-stained SDS-PAGE.
In assay [2] the target is full-length human histone H3 (human) (UniProt P68431). The description is as above.

A word on the stoichiometry N: it is a count of units in the complex or per binding partner. As for “N-terminal domain of human MCM2 (aa 63–154) (from UniProt P49736 63-154) (domain or fragment)”, the stoichiometry N in assay [1] worked out at 1.

“full-length human histone H4 (from UniProt P62805 1-103) (natural protein)”: the stoichiometry N in assay [2] stood at 1.

In the case of “globular domain of ASF1a (aa 1–157) (from UniProt Q9Y294 1-157) (domain or fragment)”, the stoichiometry N in assay [1] came out at 1.
